The test concerns the target T1, human pyruvate kinase M2 (PKM2) (human, UniProt P14618 1-531).
T1 construct: also called tetrameric PK M2; human PK M2
As to the kind of experiment: ultrafiltration (Amicon 30k) of equimolar 2 µM human PK M2 and 2 µM human HMGB1, Western blot of filtrate and retentate. On the procedure: Ultrafiltration of the PK M2-HMGB1 complex: equimolar amounts of HMGB1 and PKM2 were mixed in a final volume of 300 μl and filtrated (14000 g, 4° C.) to a final volume of 15 μl in an Amicon Ultra 0.5 ml 30k device (Merck-Millipore, Darmstadt, Germany). The retentate was adjusted to the original volume after centrifugation. Then filtrate and retentate were analyzed by Western Blot. For controls HMGB1 and PKM2 were also analyzed alone. Pure HMGB1 (2 μM) suited as a negative control.
Background: A western blot detects proteins with antibodies after separation by electrophoresis.

Experimental findings from patent US20200289560A1 (RUPRECHT KARLS UNIVERSIT T HEIDELBERG, published 2020) are described below.

T1 sequence (P14618 whole entry): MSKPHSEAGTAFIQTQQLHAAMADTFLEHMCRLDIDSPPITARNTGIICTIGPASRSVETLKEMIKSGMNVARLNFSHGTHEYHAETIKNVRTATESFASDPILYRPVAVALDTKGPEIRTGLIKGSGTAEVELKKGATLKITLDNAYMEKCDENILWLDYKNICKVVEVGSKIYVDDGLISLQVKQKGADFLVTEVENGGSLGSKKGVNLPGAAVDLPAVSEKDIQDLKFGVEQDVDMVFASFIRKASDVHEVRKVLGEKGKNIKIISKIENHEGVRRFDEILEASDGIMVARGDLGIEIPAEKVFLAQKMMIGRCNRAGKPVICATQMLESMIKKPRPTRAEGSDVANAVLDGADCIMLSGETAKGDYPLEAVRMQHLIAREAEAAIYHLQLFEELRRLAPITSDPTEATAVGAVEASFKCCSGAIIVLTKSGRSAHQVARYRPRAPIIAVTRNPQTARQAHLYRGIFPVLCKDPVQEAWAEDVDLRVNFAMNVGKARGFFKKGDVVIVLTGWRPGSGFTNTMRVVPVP

B1: recombinant human HMGB1 protein (High Mobility Group Box 1 polypeptide) (other)
chain: MGKGDPKKPRGKMSSYAFFVQTCREEHKKKHPDASVNFSEFSKKCSERWKTMSAKEKGKFEDMAKADKARYEREMKTYIPPKGETKKKFKDPNAPKRPPSAFFLFCSEYRPKIKGEHPGLSIGDVAKKLGEMWNNTAADDKQPYEKKAAKLKEKYEKDIAAYRAKGKPDAAKKGVVKAEKSKKKKEEEEDEEDEEDEEEEEDEEDEDEEEDDDDE
notes: also called rhHMGB1; 125I-labelled HMGB1
Take B1: the binding result is reported as “binds”.
